Where no end group is shown, it is not given here.
T1: human thrombin receptor (PAR1) (human, UniProt P25116 42-425)
T1 sequence (looked up): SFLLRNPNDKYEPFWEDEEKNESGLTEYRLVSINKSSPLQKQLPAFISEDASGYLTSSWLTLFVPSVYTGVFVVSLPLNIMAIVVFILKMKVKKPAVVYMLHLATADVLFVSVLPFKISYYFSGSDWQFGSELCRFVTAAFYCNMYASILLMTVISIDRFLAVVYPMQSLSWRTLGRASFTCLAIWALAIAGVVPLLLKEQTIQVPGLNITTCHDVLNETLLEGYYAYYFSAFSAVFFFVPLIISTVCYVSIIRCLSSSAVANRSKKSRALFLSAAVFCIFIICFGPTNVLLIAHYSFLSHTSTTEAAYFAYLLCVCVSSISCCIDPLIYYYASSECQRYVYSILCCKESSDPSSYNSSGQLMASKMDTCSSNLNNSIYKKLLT


Key:
[1] = biological target: T1, human thrombin receptor (PAR1); experiment: cell-based or functional assay
[2] = biological target: T2, light-activated rhodopsin (bovine rod outer segment membranes) (bovine, UniProt P02699 1-348, retinylidene chromophore bound to Lys-296); experiment: not detailed in the sentence
T2 construct: whole, on cells; native receptor in membrane fragments immobilised on wells, not intact cells; also called metarhodopsin II; MII

[3] = biological target: T2, light-activated rhodopsin (bovine rod …); experiment: LacI display panning, light-activated ROS membranes, peptide 8 added in rounds 3 and 4
Experimental: The panning process is illustrated in FIG. 1. For screening of the library by “panning,” rhodopsin receptors prepared according to Example 5 were immobilized directly on Immulon 4 (Dynatech) microtiter wells (0.1-1 μg of protein per well) in cold 35 mM HEPES, pH 7.5, containing 0.1 mM EDTA, 50 mM KCl and 1 mM dithiothreitol (HEK/DTT). After shaking for one hour at 4° C., unbound membrane fragments were washed away with HEK/DTT. The wells were blocked with 100 μl 2% BSA in HEKL (35 mM HEPES; 0.1 mM EDTA; 50 mM KCl; 0.2 M α-lactose; pH 7.5, with 1 mM DTT). For rounds 1 and 2, BSA was used for blocking; in later rounds 1% nonfat dry milk was used. For the first round of panning, about 24 wells of a 96-well plate were used. In subsequent rounds, 8 wells with receptor and 8 wells without receptor were prepared.
To identify peptides having even higher affinity to light-activated rhodopsin than those identified by the panning procedure described in Example 7, a high affinity peptide was included in the library incubations in rounds three and four. […] Screening of the Gαt library was performed as in Example 7, except that 10 μL 100 μM ([…]) peptide 8 was included in the wells in rounds three and four. […] Residues L344, C347 and G348 remained stable whether peptide 8 was included in the screen or not.

T2 sequence (P02699 whole entry, the tested form may be a part): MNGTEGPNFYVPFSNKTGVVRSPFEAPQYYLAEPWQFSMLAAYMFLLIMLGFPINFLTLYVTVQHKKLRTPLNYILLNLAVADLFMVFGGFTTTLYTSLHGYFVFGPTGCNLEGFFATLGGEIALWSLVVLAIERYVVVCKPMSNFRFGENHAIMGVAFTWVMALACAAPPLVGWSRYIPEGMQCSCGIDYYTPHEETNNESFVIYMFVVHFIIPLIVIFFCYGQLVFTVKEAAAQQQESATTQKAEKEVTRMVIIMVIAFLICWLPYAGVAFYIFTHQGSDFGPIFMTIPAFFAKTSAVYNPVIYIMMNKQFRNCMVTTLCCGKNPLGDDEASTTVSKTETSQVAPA

| decrease in thrombin-mediated HA-MAPK activity against pcDNA [1] [%] | Binder | also measured |
| --- | --- | --- |
| 57 | MGLQLNLKEYNAV [Gαq C-terminal minigene peptide (pcDNA-Gαq)] |  |
| 77 | MGLHDNLKQLMLQ [Gα13 C-terminal minigene peptide (pcDNA-Gα13)] |  |
|  | LLENLRDCGMF (also called HAP) [Peptide 8 (LLENLRDCGMF)] | fold binding against the native sequence [2]: 1000 fold |
| 59 | MGIKNNLKDCGLF [Gαi C-terminal minigene peptide (pcDNA-Gαi)] |  |
|  | MGNGIKCLFNDKL [GαiR control minigene peptide (Gαi1/2 carboxyl terminus in random order)] | thrombin mediated increase of HA-MAPK activity [1]: 4.46 fold |
|  | ILENLKDCGLL (peptide, not shown: small tags and cut ends, also: fused to LacI carrier via linker, letters not given here) [Clone No. 3 (Table XVIII) ILENLKDCGLL] | binding result [3]: binds |
| 50 | MGLQENLKDIMLQ [Gα12 C-terminal minigene peptide (pcDNA-Gα12)] |  |

From patent US20040018558A1 (published 2004)
